Test [1] has as its target T1, mouse Siglec-15-his protein (Acrobiosystems, Cat #: SG5-M52H7) (mouse).
T1 construct: Bought protein; also called mouse Siglec-15 protein
The test can be described thus: ELISA, coated mouse Siglec-15-his. Here is the method: (§1) […] mouse Siglec-15-his protein (Acrobiosystems, Cat #: SG5-M52H7) dissolved in PBS was added to an ELISA plate at 100 μL/well for coating and the plate was incubated overnight at 4° C. The ELISA plate was then blocked with PBST (PBS+0.05% Tween 20) containing 2% BSA at 200 μL/well and incubated at 37° C. for 1 h. The ELISA plate was washed 4 times with PBST. The anti-Siglec-15 antibody diluted in a gradient (5-fold dilution, starting concentration: 6.67 nM) was added to the ELISA plate at 100 μL/well and the plate was incubated at 37° C. for 1 h. The ELISA plate was washed 4 times with PBST. The goat anti-human IgG (H+L)-HRP (1:5000, Jackson, Cat: 109-035-088) was added at 100 μL/well and the plate was incubated at 37° C. for 1 h. The ELISA plate was washed 4 times with PBST. The TMB substrate (Biopanda, Cat: TMB-S-003) was added at 100 μL/well, and the plate was incubated at room temperature for 5 min, and then the stop buffer (Solarbio, Cat #: C1058) was added at 100 μL/well to stop the reaction.
In general terms: In an ELISA, binding on a coated surface is turned into a signal by an enzyme label.

Test [2] has as its target T2, human Siglec-15 ECD-his protein (Acrobiosystems, Cat #: SG5-H52H3) (human, UniProt Q6ZMC9 20-263).
T2 construct: Bought protein; only its extracellular domain stood in the assay; also called human Siglec-15 protein; recombinant human Siglec-15 protein; not shown: his tag
T2 sequence: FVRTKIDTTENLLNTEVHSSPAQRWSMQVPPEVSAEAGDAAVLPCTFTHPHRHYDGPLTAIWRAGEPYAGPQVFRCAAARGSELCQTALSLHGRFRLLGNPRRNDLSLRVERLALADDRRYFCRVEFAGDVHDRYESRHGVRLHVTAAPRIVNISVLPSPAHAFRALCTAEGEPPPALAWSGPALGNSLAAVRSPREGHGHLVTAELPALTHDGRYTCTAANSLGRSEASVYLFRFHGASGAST
The test can be described thus: BLI (Octet RED96), antibody on AHC sensor, Siglec-15 ECD-his as analyte. How it is done: Recombinant Human Siglec-15 Protein Affinity was determined using an Octet RED96 instrument (ForteBio) and an anti-human IgG Fc capture sensor (AHC biosensor, ForteBio, Cat #: 18-5060) according to the detailed procedures and methods provided by the manufacturer. Specifically, candidate antibodies were each diluted to a final concentration of 6 µg/mL and directly immobilized on AHC biosensors for kinetic measurements. The antigenic protein Siglec-15 ECD-his protein (Acrobiosystems, Cat #: SG5-H52H3) was diluted with 10× Kinetics buffer to 3 concentrations of 60 nM, 30 nM, and 15 nM separately and injected as the analyte for 120 s with a dissociation time of 400 s and then subjected to regeneration with 10 mM glycine HCl (pH 1.5) for 15 s. The association rate (kon) and dissociation rate (kdis) were calculated using a simple one-to-one Languir binding model (Octet Red96 data analysis software). The equilibrium dissociation constant (kD) was calculated as the ratio of kdis/kon.
(In BLI a coated tip is dipped into the sample, and binding shifts an interference pattern.)

Test [3] deals with T3, cynomolgus monkey Siglec-15-his protein (Acrobiosystems, Cat #: SG5-C52H6) (cynomolgus monkey, UniProt Q6ZMC9 20-263 (human entry)).
T3 construct: Bought protein; also called cynomolgus monkey Siglec-15 protein; not shown: his tag
T3 chain: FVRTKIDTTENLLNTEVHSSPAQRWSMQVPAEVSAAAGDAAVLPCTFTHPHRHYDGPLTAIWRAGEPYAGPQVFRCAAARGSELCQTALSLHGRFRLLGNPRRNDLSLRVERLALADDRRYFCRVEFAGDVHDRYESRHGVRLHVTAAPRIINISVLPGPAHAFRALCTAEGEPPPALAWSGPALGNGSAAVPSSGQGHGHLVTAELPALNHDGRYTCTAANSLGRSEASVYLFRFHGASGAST
The test can be described thus: ELISA, coated cynomolgus monkey Siglec-15-his. How it is done:
[…] cynomolgus monkey Siglec-15-his protein (Acrobiosystems, Cat #: SG5-C52H6) dissolved in PBS was added to an ELISA plate at 100 μL/well for coating and the plate was incubated overnight at 4° C. The ELISA plate was then blocked with PBST (PBS+0.05% Tween 20) containing 2% BSA at 200 μL/well and incubated at 37° C. for 1 h. The ELISA plate was washed 4 times with PBST. The anti-Siglec-15 antibody diluted in a gradient (5-fold dilution, starting concentration: 6.67 nM) was added to the ELISA plate at 100 µL/well and the plate was incubated at 37° C. for 1 h. The ELISA plate was washed 4 times with PBST. The goat anti-human IgG (H+L)-HRP (1:5000, Jackson, Cat #: 109-035-088) was added at 100 μL/well and the plate was incubated at 37° C. for 1 h. The ELISA plate was washed 4 times with PBST. The TMB substrate (Biopanda, Cat #: TMB-S-003) was added at 100 μL/well, and the plate was incubated at room temperature for 5 min, and then the stop buffer (Solarbio, Cat #: C1058) was added at 100 μL/well to stop the reaction.

For test [4], the target named is T2, human Siglec-15 ECD-his protein …. Nature of the test: ELISA, coated human Siglec-15 ECD-his. Here is the method: as §1, with “human Siglec-15 ECD-his” for “mouse Siglec-15-his”, “SG5-H52H3)” for “SG5-M52H7)”, “Cat #:” for “Cat:”
The target of test [5] is T4, human Siglec-15 on CHO-K1/human Siglec-15 cells (KYinno, Beijing) (human, UniProt Q6ZMC9 20-328).
T4 sequence: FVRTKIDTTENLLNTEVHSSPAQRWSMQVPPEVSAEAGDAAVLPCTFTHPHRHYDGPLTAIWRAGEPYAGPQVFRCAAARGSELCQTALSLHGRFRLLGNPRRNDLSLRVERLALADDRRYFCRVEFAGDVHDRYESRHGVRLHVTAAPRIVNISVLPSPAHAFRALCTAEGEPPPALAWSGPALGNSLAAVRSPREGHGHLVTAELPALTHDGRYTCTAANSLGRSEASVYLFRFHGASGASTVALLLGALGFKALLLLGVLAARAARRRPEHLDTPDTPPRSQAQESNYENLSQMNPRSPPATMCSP
Nature of the test: flow cytometry on CHO-K1/human Siglec-15 cells. Here is the method: CHO-K1/human Siglec-15 cells (KYinno, Beijing) were adjusted to a density of 1×10⁶/mL with PBS, and the cell suspension was added to a 96-well V-bottom plate at 100 μL/well. The 96-well V-bottom plate was centrifuged at 1000 rpm for 5 min and washed once with PBS+2% FBS. The cells were resuspended in […] of antibody diluted in a gradient (5-fold dilution, starting concentration: 500 nM) and incubated at 4° C. for 1 h, and PR300066 and hIgG1 were used as positive control and negative control, respectively. After 1 h, the cells were washed twice with PBS+2% FBS. The cells were incubated with 100 μL of Alexa Fluor 488 goat anti-human IgG (Jackson, Cat #: 109-545-098) at 4° C. for 1 h in the dark and then washed twice with PBS+2% FBS. The cells were then resuspended in 200 μL of PBS+2% FBS. The fluorescence intensity of the cells was analyzed using a BD FACSCanto™ II flow cytometer.
On the technique in general: A flow cytometer gives signals particle by particle.

This is an account of results in patent publication US20260070974A1 (NONA BIOSCIENCES SUZHOU, published 2026).

B1: PR300659 (antibody, human IgG1, kappa, V domains shown)
VH: QVQLVESGGGVVQPGRSLRLSCAASGFIFSSYDIYWVRQAPGKGLEWVAVIWHDGSNKYYADSVKGRFTISRDNSKNTVYLQMNSLRAEDTAVYYCARDTHSYGSRIYYDYNYGMDVWGQGTTVTVSS
VL: DIQMTQSPSSLSASVGDRVSITCRASQSISSYLNWYQQKPGKAPKLLIYAASSLQSGVPSRFSGSGSGADFTLTISSLQPEDFATYYCQQTYSPPFTFGPGTKVDIKR
As to B1, it took 0.013 nM to reach a half-maximal effect in test [1] (EC50). In addition, in test [2], the Kd (usually the constant that tells how readily two partners part at equilibrium) came out at 0.00305 nM; the koff (in general, the first-order rate constant of dissociation) turned out to be 3.25e-06 s⁻¹; the kon (commonly the second-order rate constant of association) came out at 1.07e+06 M⁻¹ s⁻¹. The EC50 (commonly the midpoint of the concentration-response curve) in test [3] was approximately 0.011 nM. The molecule also returned an EC50 in test [4] of 0.01 nM. Also, in test [5], the EC50 was 3.45 nM and the “Maximum (MFI)” value stood at 24000 MFI.

B2: PR300526 (antibody, human IgG1, kappa, V domains shown)
VH: QVQLVQSGAEVKKPGASVKVSCKASGYTFTDYYMHWVRQAPGQGLEWMGWINPNSDGTNYAQRFQGRVTMTRDTSISTAYMELSRLRSDDTAVYYCARGRLLRFFDWLDVMDAWGQGTSVTVSS
VL: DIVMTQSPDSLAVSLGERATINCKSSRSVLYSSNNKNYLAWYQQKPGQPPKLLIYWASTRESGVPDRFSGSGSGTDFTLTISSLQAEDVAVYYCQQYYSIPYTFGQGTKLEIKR
Turning to B2, the results for the EC50 in test [1], in test [3] and in test [4] were 0.104 nM, 0.071 nM and 0.02 nM, respectively.

B3: PR300670 (antibody, human IgG1, kappa, V domains shown)
VH: QVQLVESGGGVVQPGRSLRLSCVASGFTFSTYGIHWVRQAPGKGLDWVSVIWYDGSHKYYADSVQDRFTISRDNSKNTLYLQMNSLRAEDTAVYYCAREGMITMVRGVIIDYQYHGMDVWGQGTTVTVSS
VL: DIQMTQSPSTLSASVGDRVTITCRASQSIGRRLAWYQQKPGKAPKLLIYKASSLESGVPSRFSGSGSGTEFTLTISSPQPDDFATYYCQQYHSYSYTFGQGTKLEIKR
Turning to B3, in test [1], the EC50 amounted to 0.079 nM. In test [2], the Kd is 0.0858 nM, the koff is 3.09e-05 s⁻¹ and the kon came out at 361000 M⁻¹ s⁻¹. For the same molecule, the EC50 in test [3] was determined as 0.025 nM. Also, the EC50 in test [4] was found to be 0.018 nM. In test [5], a half-maximal effect (EC50) was put at 1.49 nM and the “Maximum (MFI)” value was found to be 16600 MFI.
